Assay results reported in the RNAGym collection of RNA variant scans (doi:10.1021/acssynbio.7b00057).

B1: Pistol ribozyme (parent)
chain: GGGUCGUUGUUCCAUAAUCGCGUGGAUAUGGCACGCAAGUUUCUACCGGGCACCGUAAAUGUCCGACUGGAGCCGUUCGGGCGGCUAUAAACAGACCUCAGGCCCGAAGCGUGGCGGCACCUGCCGCCGGUGGUAAAAAAGAUCGGAAGAGCACACGUCU

Variants of: B1
Assay: aptazyme ON/OFF ratio, guanine; higher = stronger switching; co-transcriptional cleavage with and without guanine

In order of falling “aptazyme ON/OFF ratio” value:
1. U7A U8C  1.98
2. U7A U8C G9A  1.74
3. U7A U8A U10G U11G C13U  1.5
4. U7A U8C C12U  1.49
5. U7A U8A U10G U11G C12U  1.46
6. U7A U8A U11G C12G C13U  1.46
7. U7A U8C G9A U10A U11G C12U  1.45
8. U7A U8A U11A C12A  1.44
9. U7A U8C C12A  1.42
10. U7A U8A U10G U11G C12G C13U  1.4
11. U7A U8C G9A U10A C12A C13U  1.36
12. U7A U8A U11G C12U C13U  1.35
13. U7A U8C G9A U10A U11A C13A  1.35
14. U7A U8A U10G U11G C12A C13U  1.34
15. U7A U8A U10G U11G C12G  1.33
16. U7A U8C G9A U10A U11A C12A  1.31
17. U7A U8C G9A U10A U11G C12U C13U  1.31
18. U7A U8A U11A C12U  1.31
19. U7A U8C G9A U10A U11G C12G C13G  1.31
20. U7A U8C G9A U10A U11A C12U C13U  1.3
21. U7A U8C C12U C13A  1.3
22. U7A U8A U10G U11G C12A  1.3
23. U7A U8C C12U C13G  1.27
24. U7A U8C C12U C13U  1.27
25. U7A U8A U11G C12U  1.27
26. U7A U8A U11G C12G  1.27
27. U7A U8C G9A U10A C12A  1.26
28. U7A U8C G9A U10A U11G  1.26
29. U7A U8C G9A U10A U11A C12U  1.25
30. U7A U8A U11G C12U C13G  1.25
31. U7A U8C G9A U10A U11A C12G  1.24
32. U7A U8C G9A U10A C12G  1.24
33. U7A U8A U11G C12G C13G  1.24
34. U7A U8C G9A U10A U11G C12U C13G  1.24
35. U7A U8C G9A U10A U11G C12A C13G  1.23
36. U7A U8C G9A U10A C13A  1.22
37. U7A U8C G9A U10A C12A C13G  1.22
38. U7A U8A U10G U11G C12A C13A  1.21
39. U7A U8C G9A U10A U11C C12G  1.21
40. U7A U8C G9A U10A U11A C12G C13U  1.21
41. U7A U8C G9A U10A C13U  1.2
42. U7A U8C G9A U10A U11C C12G C13U  1.2
43. U7A U8A U11G C12U C13A  1.2
44. U7A U8C G9A U10A C12A C13A  1.2
45. U7A U8C G9A U10A U11G C12U C13A  1.2
46. U7A U8C G9A U10A C12U C13G  1.2
47. U7A U8A U11A C12G  1.2
48. U7A U8C G9A U10A U11A  1.19
49. U7A U8C C12G  1.18
50. U7A U8C G9A U10A U11A C13U  1.18
51. U7A U8C G9A U10A C12U  1.17
52. U7A U8C G9A U10A U11C C12G C13G  1.17
53. U7A U8C G9A U10A U11G C12G  1.16
54. U7A U8A U10G U11G C12A C13G  1.16
55. U7A U8C G9A U10A U11G C12A C13U  1.16
56. U7A U8C G9A U10A U11C C12A  1.15
57. U7A U8A U11G C12A  1.13
58. U7A U8C G9A U10A U11A C12G C13G  1.13
59. U7A U8A U10G U11G C13G  1.12
60. U7A U8C G9A U10A U11A C13G  1.12
61. U7A U8C G9A U10A C12U C13U  1.12
62. U7A U8C G9A U10A C12U C13A  1.11
63. U7A U8C G9A U10A U11G C12G C13A  1.11
64. U7A U8C G9A U10A U11G C12G C13U  1.11
65. U7A U8A U11A C13A  1.11
66. U7A U8A U11A C13U  1.11
67. U7A U8C G9A U10A U11A C12G C13A  1.11
68. U7A U8C G9A C12U C13U  1.1
69. U7A U8A U11G C12G C13A  1.1
70. U7A U8A U10G U11G C12G C13G  1.09
71. U7A U8C G9A C12U C13G  1.09
72. U7A U8C G9A U10A U11C C12G C13A  1.09
73. U7A U8C G9A U10A U11C C12U  1.09
74. U7A U8A U11A C13G  1.09
75. U7A U8C G9A U10A U11G C12A C13A  1.08
76. U7A U8A U10G U11G C12G C13A  1.07
77. U7A U8A U10G U11G C13A  1.07
78. U7A U8C G9A U10A C13G  1.07
79. U7A U8C G9A U10A U11C  1.07
80. U7A U8C G9A C12U C13A  1.07
81. U7A U8C G9A U10A U11G C12A  1.06
82. U7A U8C G9A U10A U11C C13U  1.04
83. U7A U8C G9A U10A U11C C13G  1.03
84. U7A U8C G9A U10A U11C C13A  1.02
